Substitutions are numbered along the chain they refer to. Blank lines part the entries; values can stand above or below the binder they belong to.
Assays:
[1] = target: T1, unglycosylated, monobiotinylated extracellular domain of human CD98hc produced in E. coli (human, UniProt P08195 111-529, single biotin on the N-terminal biotin acceptor peptide (BAP)); test: not given
T1 construct: also called hCD98hcED; CD98hcED; not shown: N-terminal biotin acceptor peptide (BAP) from pASK-IBA5(+)-BAP-hCD98hcED
T1 sequence: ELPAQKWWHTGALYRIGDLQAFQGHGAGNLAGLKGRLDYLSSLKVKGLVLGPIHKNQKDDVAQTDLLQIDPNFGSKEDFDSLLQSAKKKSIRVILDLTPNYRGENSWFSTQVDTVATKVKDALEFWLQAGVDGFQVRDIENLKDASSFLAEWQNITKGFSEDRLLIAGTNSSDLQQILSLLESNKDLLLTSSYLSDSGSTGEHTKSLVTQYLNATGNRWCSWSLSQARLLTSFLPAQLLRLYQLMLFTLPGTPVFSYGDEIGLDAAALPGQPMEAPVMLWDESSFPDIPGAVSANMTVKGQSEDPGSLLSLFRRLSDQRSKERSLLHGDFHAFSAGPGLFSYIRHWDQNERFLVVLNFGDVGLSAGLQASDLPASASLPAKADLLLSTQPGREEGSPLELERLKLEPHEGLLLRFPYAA

[2] = target: T2, fully glycosylated, monobiotinylated extracellular domain of human CD98hc produced in HEK 293E cells (human, UniProt P08195 111-529, N-linked glycosylation at Asn264, 280, 323 and 405 (UniProt P08195-2); single biotin on the N-terminal BAP); test: flow cytometry, soluble hCD98hcEDg at 10-fold molar excess as competitor of cell binding
T2 construct: also called hCD98hcEDg; CD98hcEDg; not shown: N-terminal His6 tag and biotin acceptor peptide (BAP) from pDSG-BM-His6-BAP-hCD98hcEDg
T2 sequence: T1 sequence
Description: Cells growing in suspension (Ramos, Raji and SU-DHL-4) were directly washed with PBS (w/o Ca²⁺ and Mg²⁺). For each measurement, 250,000 viable cells were resuspended in 250 μl FACS buffer (PBS+10% (v/v) FBS) containing 1 μM D11vs-PAS200-Cy5.5 (cf. Supplementary information) and incubated for 1 h at 4° C. Competition experiments were performed by adding a 10-fold molar concentration of either unlabeled D11vs-PAS200 or the soluble glycosylated hCD98hcED. After incubation, cells were washed three times in PBS and finally resuspended in 250 μl FACS buffer. Flow cytofluorometric experiments were performed on a FACSAria Ilu instrument using an excitation wavelength of 650 nm and an emission band-path filter of 780/60 nm.
As expected, no fluorescence staining for any of the tested cell lines was detected when using the Cy5.5-labeled PASylated wtLcn2.

Kd [1]: ≤ 5 nM
B1: SEQ ID NO 4 (designed binder)
chain: QDSTSDLIPAPPLSKVPLQQNFQDNQFHGKWYVVGRAGNTGLREDKDPGKMFATIYELKEDKSYNVTYVWSGQKKCMYSIVTFVPGSQPGEFTLGNIKSAPGRTSWLVRVVSTNYNQHALVFFKSVTQNREGFAITLYGRTKELTSELKENFIRFSKSLGLPENHIVFPVPIDQCIDG

binding result [2]: binds
B2: D11vs-PAS200-Cy5.5 (designed binder)
chain: B1 chain with L120M
modifications: Sulfo-Cyanine5.5 coupled by maleimide chemistry to the engineered C-terminal Cys
notes: also called Cy5.5 labeled PASylated D11vs; Cy5.5-labeled D11vs-PAS200; not shown: C-terminal PAS200 polypeptide (200 Pro, Ala and Ser residues) with an engineered Cys at its end

Reference: US20220153790A1 (TECHNISCHE UNIVERSIT T M NCHEN, published 2022)
